The results in this text go back to paper PMC5529448.

The data set has as its target P02689. Nature of the data set: dynamic light scattering; triplicates at +25 °C; 0.6–0.9 mg/ml protein; 0.3 M NaCl, 20 mM HEPES pH 7.5; proteins stored on ice for 24 h after SEC. Particulars: other: dynamic light scattering.

B1: human myelin protein P2 T51P (protein)
chain: MSNKFLGTWKLVSSENFDDYMKALGVGLATRKLGNLAKPTVIISKKGDIIPIRTESTFKNTEISFKLGQEFEETTADNRKTKSIVTLQRGSLNQVQRWDGKETTIKRKLVNGKMVAECKMKGVVCTRIYEKV
Consider B1, for which the Monomeric (%) was 98.3%.
